Values quoted from earlier work, collected in publication PMC6447450.

Biological target: Mcl-1 (Homo sapiens) (UniProt Q07820)
Sequence (Q07820 whole entry): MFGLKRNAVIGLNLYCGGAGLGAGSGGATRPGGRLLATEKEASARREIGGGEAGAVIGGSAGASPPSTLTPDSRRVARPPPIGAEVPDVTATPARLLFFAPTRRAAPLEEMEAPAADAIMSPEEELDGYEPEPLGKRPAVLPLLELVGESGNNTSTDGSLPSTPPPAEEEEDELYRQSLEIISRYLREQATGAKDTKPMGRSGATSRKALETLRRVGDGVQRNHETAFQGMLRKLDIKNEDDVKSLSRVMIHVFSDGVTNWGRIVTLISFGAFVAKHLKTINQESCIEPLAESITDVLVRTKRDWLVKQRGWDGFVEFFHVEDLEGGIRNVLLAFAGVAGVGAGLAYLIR

Sequence of native BH3 peptide (BIM, 2PQK) BH3 (O43521 143-165): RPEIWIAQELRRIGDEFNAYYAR

- Kd: 1 nM
Substance: native BH3 peptide (BIM, 2PQK) BH3 (from UniProt O43521)
